B1: LigI (Sphingobium sp. SYK-6; H178A) (protein)
chain: TNDERILSWNETPSKPRYTPPPGAIDAHCHVFGPMAQFPFSPKAKYLPRDAGPDMLFALRDHLGFARNVIVQASCHGTDNAATLDAIARAQGKARGIAVVDPAIDEAELAALHEGGMRGIRFNFLKRLVDDAPKDKFLEVAGRLPAGWHVVIYFEADILEELRPFMDAIPVPIVIDAMGRPDVRQGPDGADMKAFRRLLDSREDIWFKATCPDRLDPAGPPWDDFARSVAPLVADYADRVIWGTDWPHPNMQDAIPDDGLVVDMIPRIAPTPELQHKMLVTNPMRLYWSEEM
B2: LigI (Sphingobium sp. SYK-6; R122M) (protein)
chain: TNDERILSWNETPSKPRYTPPPGAIDAHCHVFGPMAQFPFSPKAKYLPRDAGPDMLFALRDHLGFARNVIVQASCHGTDNAATLDAIARAQGKARGIAVVDPAIDEAELAALHEGGMRGIMFNFLKRLVDDAPKDKFLEVAGRLPAGWHVVIYFEADILEELRPFMDAIPVPIVIDHMGRPDVRQGPDGADMKAFRRLLDSREDIWFKATCPDRLDPAGPPWDDFARSVAPLVADYADRVIWGTDWPHPNMQDAIPDDGLVVDMIPRIAPTPELQHKMLVTNPMRLYWSEEM
B3: LigI (Sphingobium sp. SYK-6; H31N) (protein)
chain: TNDERILSWNETPSKPRYTPPPGAIDAHCNVFGPMAQFPFSPKAKYLPRDAGPDMLFALRDHLGFARNVIVQASCHGTDNAATLDAIARAQGKARGIAVVDPAIDEAELAALHEGGMRGIRFNFLKRLVDDAPKDKFLEVAGRLPAGWHVVIYFEADILEELRPFMDAIPVPIVIDHMGRPDVRQGPDGADMKAFRRLLDSREDIWFKATCPDRLDPAGPPWDDFARSVAPLVADYADRVIWGTDWPHPNMQDAIPDDGLVVDMIPRIAPTPELQHKMLVTNPMRLYWSEEM
B4: LigI (Sphingobium sp. SYK-6; H178C) (protein)
chain: TNDERILSWNETPSKPRYTPPPGAIDAHCHVFGPMAQFPFSPKAKYLPRDAGPDMLFALRDHLGFARNVIVQASCHGTDNAATLDAIARAQGKARGIAVVDPAIDEAELAALHEGGMRGIRFNFLKRLVDDAPKDKFLEVAGRLPAGWHVVIYFEADILEELRPFMDAIPVPIVIDCMGRPDVRQGPDGADMKAFRRLLDSREDIWFKATCPDRLDPAGPPWDDFARSVAPLVADYADRVIWGTDWPHPNMQDAIPDDGLVVDMIPRIAPTPELQHKMLVTNPMRLYWSEEM
B5: LigI (Sphingobium sp. SYK-6; Y154F) (protein)
chain: TNDERILSWNETPSKPRYTPPPGAIDAHCHVFGPMAQFPFSPKAKYLPRDAGPDMLFALRDHLGFARNVIVQASCHGTDNAATLDAIARAQGKARGIAVVDPAIDEAELAALHEGGMRGIRFNFLKRLVDDAPKDKFLEVAGRLPAGWHVVIFFEADILEELRPFMDAIPVPIVIDHMGRPDVRQGPDGADMKAFRRLLDSREDIWFKATCPDRLDPAGPPWDDFARSVAPLVADYADRVIWGTDWPHPNMQDAIPDDGLVVDMIPRIAPTPELQHKMLVTNPMRLYWSEEM
B6: LigI (Sphingobium sp. SYK-6; H29N) (protein)
chain: TNDERILSWNETPSKPRYTPPPGAIDANCHVFGPMAQFPFSPKAKYLPRDAGPDMLFALRDHLGFARNVIVQASCHGTDNAATLDAIARAQGKARGIAVVDPAIDEAELAALHEGGMRGIRFNFLKRLVDDAPKDKFLEVAGRLPAGWHVVIYFEADILEELRPFMDAIPVPIVIDHMGRPDVRQGPDGADMKAFRRLLDSREDIWFKATCPDRLDPAGPPWDDFARSVAPLVADYADRVIWGTDWPHPNMQDAIPDDGLVVDMIPRIAPTPELQHKMLVTNPMRLYWSEEM
B7: LigI (Sphingobium sp. SYK-6; Y47F) (protein)
chain: TNDERILSWNETPSKPRYTPPPGAIDAHCHVFGPMAQFPFSPKAKFLPRDAGPDMLFALRDHLGFARNVIVQASCHGTDNAATLDAIARAQGKARGIAVVDPAIDEAELAALHEGGMRGIRFNFLKRLVDDAPKDKFLEVAGRLPAGWHVVIYFEADILEELRPFMDAIPVPIVIDHMGRPDVRQGPDGADMKAFRRLLDSREDIWFKATCPDRLDPAGPPWDDFARSVAPLVADYADRVIWGTDWPHPNMQDAIPDDGLVVDMIPRIAPTPELQHKMLVTNPMRLYWSEEM
B8: LigI (Sphingobium sp. SYK-6; D246N) (protein)
chain: TNDERILSWNETPSKPRYTPPPGAIDAHCHVFGPMAQFPFSPKAKYLPRDAGPDMLFALRDHLGFARNVIVQASCHGTDNAATLDAIARAQGKARGIAVVDPAIDEAELAALHEGGMRGIRFNFLKRLVDDAPKDKFLEVAGRLPAGWHVVIYFEADILEELRPFMDAIPVPIVIDHMGRPDVRQGPDGADMKAFRRLLDSREDIWFKATCPDRLDPAGPPWDDFARSVAPLVADYADRVIWGTNWPHPNMQDAIPDDGLVVDMIPRIAPTPELQHKMLVTNPMRLYWSEEM
B9: LigI (Sphingobium sp. SYK-6; R128M) (protein)
chain: TNDERILSWNETPSKPRYTPPPGAIDAHCHVFGPMAQFPFSPKAKYLPRDAGPDMLFALRDHLGFARNVIVQASCHGTDNAATLDAIARAQGKARGIAVVDPAIDEAELAALHEGGMRGIRFNFLKMLVDDAPKDKFLEVAGRLPAGWHVVIYFEADILEELRPFMDAIPVPIVIDHMGRPDVRQGPDGADMKAFRRLLDSREDIWFKATCPDRLDPAGPPWDDFARSVAPLVADYADRVIWGTDWPHPNMQDAIPDDGLVVDMIPRIAPTPELQHKMLVTNPMRLYWSEEM

Substrate: O=C(O)c1cc(C(=O)O)oc(=O)c1
Assay: purified protein
Assay type: biochemical, Sphingobium sp. SYK-6
Conditions: 50 mM BICINE pH 8.25, 30 °C

Point of comparison: B1, Km 214 ± 44 µM. Against it:
- B2 — 2.4-fold lower, 90 ± 15 µM
- B3 — 2.4-fold lower, 89 ± 20 µM
- B4 — 5.2-fold lower, 41 ± 7 µM
- B5 — within error, 238 ± 19 µM
- B6 — 3.4-fold higher, 720 ± 122 µM
- B7 — within error, 217 ± 41 µM
- B8 — 3.2-fold lower, 66 ± 13 µM
- B9 — 2.2-fold higher, 465 ± 104 µM

Point of comparison: B3, kcat 3.6 ± 0.3 s⁻¹. Against it:
- B1 — 2.2-fold higher, 8 ± 0.9 s⁻¹
- B2 — 180-fold lower, 0.02 ± 0.001 s⁻¹
- B4 — 8.9-fold higher, 32 ± 4 s⁻¹
- B5 — 2.4-fold higher, 8.7 ± 0.3 s⁻¹
- B6 — 9-fold lower, 0.4 ± 0.04 s⁻¹
- B7 — 7.2-fold higher, 26 ± 2 s⁻¹
- B8 — 160-fold lower, 0.023 ± 0.001 s⁻¹
- B9 — within 1.5-fold, 5 ± 0.4 s⁻¹

Point of comparison: B2, kcat/Km 200 ± 22 M⁻¹ s⁻¹. Against it:
- B1 — 180-fold higher, 37000 ± 4000 M⁻¹ s⁻¹
- B3 — 200-fold higher, 41000 ± 6000 M⁻¹ s⁻¹
- B4 — 3900-fold higher, 780000 ± 50000 M⁻¹ s⁻¹
- B5 — 180-fold higher, 37000 ± 200 M⁻¹ s⁻¹
- B6 — 2.5-fold higher, 500 ± 37 M⁻¹ s⁻¹
- B7 — 600-fold higher, 120000 ± 2000 M⁻¹ s⁻¹
- B8 — the same, 200 ± 34 M⁻¹ s⁻¹
- B9 — 55-fold higher, 11000 ± 7000 M⁻¹ s⁻¹

Reference: publication PMC3416963
